Measured values from the supplement of paper PMC5998384.

What was measured:
HeLa Kyoto [1] = assay: solubility in G1/S (NP-40 vs SDS abundance) (log2 ratio); higher = more soluble; conditions: cell cycle stage: G1/S
HeLa Kyoto [2] = assay: melting temperature (median over replicates), in situ; higher = more thermally stable
HeLa Kyoto [3] = assay: solubility change mitosis vs G1/S (difference of NP-40 vs SDS log2 ratios) (log2 ratio difference); higher = more soluble in mitosis
HeLa Kyoto [4] = assay: thermal stability score vs G1/S (z-score of summed log2 fold changes over temperatures); higher = more thermally stable than in G1/S
[5] = cell cycle stage: early G1 (4.5 h after nocodazole release)
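Throughout, for melting temperature (median over replicates), in situ: HeLa Kyoto cells synchronized by double thymidine or nocodazole block, proteins quantified by TMT10plex mass spectrometry, three independent biological replicates.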
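Throughout, for solubility change mitosis vs G1/S (difference of NP-40 vs SDS log2 ratios): synchronized HeLa Kyoto cells (double thymidine block for G1/S, nocodazole release for mitosis), protein amounts in NP-40 versus SDS lysates quantified by mass spectrometry, three biological replicates.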
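Throughout, for solubility in G1/S (NP-40 vs SDS abundance): HeLa Kyoto cells arrested at G1/S by double thymidine block, proteins quantified by TMT10plex mass spectrometry in mild NP-40 versus SDS extracts, three biological replicates.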
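Throughout, for thermal stability score vs G1/S (z-score of summed log2 fold changes over temperatures): synchronized HeLa Kyoto cells, proteins quantified by TMT10plex mass spectrometry, three biological replicates, mitosis taken 0.5 h after nocodazole release, G1/S directly after double thymidine block.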

Sequence | solubility in G1/S (log2) (HeLa Kyoto [1]) | melting temperature (HeLa Kyoto [2]; cell cycle stage: G1/S) [°C] | melting temperature (HeLa Kyoto [2]; cell cycle stage: mitosis) [°C] | solubility change mitosis (log2) (HeLa Kyoto [3]) | thermal stability score (HeLa Kyoto [4]; [5]) | thermal stability score (HeLa Kyoto [4]; cell cycle stage: mitosis)
MELQPPEASIAVVSIPRQLPGSHSEAGVQGLSAGDDSELGSHCVAQTGLELLASGDPLPSASQNAEMIETGSDCVTQAGLQLLASSDPPALASKNAEVTGTMSQDTEVDMKEVELNELEPEKQPMNAASGAAMSLAGAEKNGLVKIKVAEDEAEAAAAAKFTGLSKEELLKVAGSPGWVRTRWALLLLFWLGWLGMLAGAVVIIVRAPRCRELPAQKWWHTGALYRIGDLQAFQGHGAGNLAGLKGRLDYLSSLKVKGLVLGPIHKNQKDDVAQTDLLQIDPNFGSKEDFDSLLQSAKKKSIRVILDLTPNYRGENSWFSTQVDTVATKVKDALEFWLQAGVDGFQVRDIENLKDASSFLAEWQNITKGFSEDRLLIAGTNSSDLQQILSLLESNKDLLLTSSYLSDSGSTGEHTKSLVTQYLNATGNRWCSWSLSQARLLTSFLPAQLLRLYQLMLFTLPGTPVFSYGDEIGLDAAALPGQPMEAPVMLWDESSFPDIPGAVSANMTVKGQSEDPGSLLSLFRRLSDQRSKERSLLHGDFHAFSAGPGLFSYIRHWDQNERFLVVLNFGDVGLSAGLQASDLPASASLPAKADLLLSTQPGREEGSPLELERLKLEPHEGLLLRFPYAA [SLC3A2] | 0.345 | 59.8 | 60.5 | -0.0187 | -2.05 | -1.32
MELRVGNKYRLGRKIGSGSFGDIYLGANIASGEEVAIKLECVKTKHPQLHIESKFYKMMQGGVGIPSIKWCGAEGDYNVMVMELLGPSLEDLFNFCSRKFSLKTVLLLADQMISRIEYIHSKNFIHRDVKPDNFLMGLGKKGNLVYIIDFGLAKKYRDARTHQHIPYRENKNLTGTARYASINTHLGIEQSRRDDLESLGYVLMYFNLGSLPWQGLKAATKRQKYERISEKKMSTPIEVLCKGYPSEFSTYLNFCRSLRFDDKPDYSYLRQLFRNLFHRQGFSYDYVFDWNMLKFGAARNPEDVDRERREHEREERMGQLRGSATRALPPGPPTGATANRLRSAAEPVASTPASRIQPAGNTSPRAISRVDRERKVSMRLHRGAPANVSSSDLTGRQEVSRIPASQTSVPFDHLGK [CSNK1E] | -0.212 | 49.7 | 49 | 0.102 | 0.572 | 0.264
MELSAVGERVFAAEALLKRRIRKGRMEYLVKWKGWSQKYSTWEPEENILDARLLAAFEEREREMELYGPKKRGPKPKTFLLKAQAKAKAKTYEFRSDSARGIRIPYPGRSPQDLASTSRAREGLRNMGLSPPASSTSTSSTCRAEAPRDRDRDRDRDRERDRERERERERERERERERERGTSRVDDKPSSPGDSSKKRGPKPRKELPDPSQRPLGEPSAGLGEYLKGRKLDDTPSGAGKFPAGHSVIQLARRQDSDLVQCGVTSPSSAEATGKLAVDTFPARVIKHRAAFLEAKGQGALDPNGTRVRHGSGPPSSGGGLYRDMGAQGGRPSLIARIPVARILGDPEEESWSPSLTNLEKVVVTDVTSNFLTVTIKESNTDQGFFKEKR [CBX8] | -0.615 | 46.1 | 49.5 | 0.612 | 2.83 | 5.27
MENGYTYEDYKNTAEWLLSHTKHRPQVAIICGSGLGGLTDKLTQAQIFDYGEIPNFPRSTVPGHAGRLVFGFLNGRACVMMQGRFHMYEGYPLWKVTFPVRVFHLLGVDTLVVTNAAGGLNPKFEVGDIMLIRDHINLPGFSGQNPLRGPNDERFGDRFPAMSDAYDRTMRQRALSTWKQMGEQRELQEGTYVMVAGPSFETVAECRVLQKLGADAVGMSTVPEVIVARHCGLRVFGFSLITNKVIMDYESLEKANHEEVLAAGKQAAQKLEQFVSILMASIPLPDKAS [PNP] | 0.301 | 60.3 | 60.2 | -0.144 | -0.982 | -1.39
MENSQLCKLFIGGLNVQTSESGLRGHFEAFGTLTDCVVVVNPQTKRSRCFGFVTYSNVEEADAAMAASPHAVDGNTVELKRAVSREDSARPGAHAKVKKLFVGGLKGDVAEGDLIEHFSQFGTVEKAEIIADKQSGKKRGFGFVYFQNHDAADKAAVVKFHPIQGHRVEVKKAVPKEDIYSGGGGGGSRSSRGGRGGRGRGGGRDQNGLSKGGGGGYNSYGGYGGGGGGGYNAYGGGGGGSSYGGSDYGNGFGGFGSYSQHQSSYGPMKSGGGGGGGGSSWGGRSNSGPYRGGYGGGGGYGGSSF [HNRNPA0] | -0.218 | 45.2 | 47 | 0.24 | 3.72 | 12.8
